Experiments:
[1] = molecular target: T1, C-term Biotin Nav1.7 (3-3) peptide, human (human, C-terminal biotin attached via a G4S linker); assay: SPR, captured biotin-peptide, antibody analyte
T1 construct: Synthetic peptide; also called Human Nav1.7 3-3 C-term biotin
T1 peptide: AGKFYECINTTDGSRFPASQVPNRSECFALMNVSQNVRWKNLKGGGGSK

[2] = molecular target: T2, Native Nav1.7 (3-3) peptide, human (human); assay: Biacore (second token of ELISA/Biacore summary)
T2 construct: Synthetic peptide, unbiotinylated; also called Human Nav1.7 3-3 native; Nav1.7 3-3 native peptide
T2 peptide: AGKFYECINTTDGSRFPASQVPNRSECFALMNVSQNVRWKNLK

[3] = molecular target: T3, Native Nav1.7 (3-1) peptide, rat (rat); assay: ELISA on coated peptide
T3 construct: Synthetic peptide; also called Rat Nav1.7 3-1 native
T3 peptide: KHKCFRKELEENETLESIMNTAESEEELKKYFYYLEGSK
Procedure, shortened: (§1)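 Binding graded from absorbance at OD450 for antibodies applied at 1 μg/ml (− below 0.2, + 0.2–1, ++ 1–2, +++ 2–4; NT not tested); antibodies were also run at 0.1 μg/mL. Biotin-peptides at 0.4 μg/mL on avidin-coated plates, other peptides at 4 μg/mL; 1 h RT binding; HRP anti-IgG/TMB detection.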

[4] = molecular target: T4, N-Term Biotin Nav1.7 (3-1) peptide, mouse (mouse, not fully specified; N-terminal biotin attached via a G4S linker); assay: ELISA on coated peptide
T4 construct: Synthetic peptide; also called Mouse Nav1.7 3-1 N-term biotin
T4 peptide: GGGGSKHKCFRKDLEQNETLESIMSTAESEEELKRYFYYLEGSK
Procedure, shortened: as §1

[5] = molecular target: T5, mouse Nav 1.7 in DRG neurons of wild type (Scn9a +/+) mice (mouse, UniProt Q62205 1-1984); assay: immunocytochemistry on cultured DRG neurons, antibody 66 nM
T5 construct: whole, on cells
Procedure: Briefly, lumbar DRGs were harvested from Scn9a^{hu/+}, Scn9a^{hu3-1/hu3-1} and Scn9a^{+/+} mice. After dissociation, cells were plated at a density of 5.5×10⁴ cells/well on 96 well plates treated with poly-DL-ornithine (0.1 mg/ml) and laminin (5 μg/ml) followed by incubation at 37° C. in 96.5% air and 3.5% CO₂. Neurons were maintained in culture in DMEM supplemented with 50 ng/ml nerve growth factor, 100 U/ml penicillin/streptomycin, MEM vitamins, and 10% heat-inactivated fetal calf serum.
After 3 to 8 days in culture, neurons were fixed in 4% PFA and 4% sucrose in PBS for 30 minutes, and permeabilized in 10% NGS and 0.1% Triton X-100. Neurons were then incubated overnight at 4° C. with anti-Naᵥ 1.7 antibodies at 66 nM (1 μg). The next day, neurons were incubated in 1:400 dilution of anti-human Alexa Fluor® 594 (Invitrogen) conjugated secondary antibody for 1 h at RT. Images were taken using a fluorescent microscope.

T5 sequence (Q62205 whole entry): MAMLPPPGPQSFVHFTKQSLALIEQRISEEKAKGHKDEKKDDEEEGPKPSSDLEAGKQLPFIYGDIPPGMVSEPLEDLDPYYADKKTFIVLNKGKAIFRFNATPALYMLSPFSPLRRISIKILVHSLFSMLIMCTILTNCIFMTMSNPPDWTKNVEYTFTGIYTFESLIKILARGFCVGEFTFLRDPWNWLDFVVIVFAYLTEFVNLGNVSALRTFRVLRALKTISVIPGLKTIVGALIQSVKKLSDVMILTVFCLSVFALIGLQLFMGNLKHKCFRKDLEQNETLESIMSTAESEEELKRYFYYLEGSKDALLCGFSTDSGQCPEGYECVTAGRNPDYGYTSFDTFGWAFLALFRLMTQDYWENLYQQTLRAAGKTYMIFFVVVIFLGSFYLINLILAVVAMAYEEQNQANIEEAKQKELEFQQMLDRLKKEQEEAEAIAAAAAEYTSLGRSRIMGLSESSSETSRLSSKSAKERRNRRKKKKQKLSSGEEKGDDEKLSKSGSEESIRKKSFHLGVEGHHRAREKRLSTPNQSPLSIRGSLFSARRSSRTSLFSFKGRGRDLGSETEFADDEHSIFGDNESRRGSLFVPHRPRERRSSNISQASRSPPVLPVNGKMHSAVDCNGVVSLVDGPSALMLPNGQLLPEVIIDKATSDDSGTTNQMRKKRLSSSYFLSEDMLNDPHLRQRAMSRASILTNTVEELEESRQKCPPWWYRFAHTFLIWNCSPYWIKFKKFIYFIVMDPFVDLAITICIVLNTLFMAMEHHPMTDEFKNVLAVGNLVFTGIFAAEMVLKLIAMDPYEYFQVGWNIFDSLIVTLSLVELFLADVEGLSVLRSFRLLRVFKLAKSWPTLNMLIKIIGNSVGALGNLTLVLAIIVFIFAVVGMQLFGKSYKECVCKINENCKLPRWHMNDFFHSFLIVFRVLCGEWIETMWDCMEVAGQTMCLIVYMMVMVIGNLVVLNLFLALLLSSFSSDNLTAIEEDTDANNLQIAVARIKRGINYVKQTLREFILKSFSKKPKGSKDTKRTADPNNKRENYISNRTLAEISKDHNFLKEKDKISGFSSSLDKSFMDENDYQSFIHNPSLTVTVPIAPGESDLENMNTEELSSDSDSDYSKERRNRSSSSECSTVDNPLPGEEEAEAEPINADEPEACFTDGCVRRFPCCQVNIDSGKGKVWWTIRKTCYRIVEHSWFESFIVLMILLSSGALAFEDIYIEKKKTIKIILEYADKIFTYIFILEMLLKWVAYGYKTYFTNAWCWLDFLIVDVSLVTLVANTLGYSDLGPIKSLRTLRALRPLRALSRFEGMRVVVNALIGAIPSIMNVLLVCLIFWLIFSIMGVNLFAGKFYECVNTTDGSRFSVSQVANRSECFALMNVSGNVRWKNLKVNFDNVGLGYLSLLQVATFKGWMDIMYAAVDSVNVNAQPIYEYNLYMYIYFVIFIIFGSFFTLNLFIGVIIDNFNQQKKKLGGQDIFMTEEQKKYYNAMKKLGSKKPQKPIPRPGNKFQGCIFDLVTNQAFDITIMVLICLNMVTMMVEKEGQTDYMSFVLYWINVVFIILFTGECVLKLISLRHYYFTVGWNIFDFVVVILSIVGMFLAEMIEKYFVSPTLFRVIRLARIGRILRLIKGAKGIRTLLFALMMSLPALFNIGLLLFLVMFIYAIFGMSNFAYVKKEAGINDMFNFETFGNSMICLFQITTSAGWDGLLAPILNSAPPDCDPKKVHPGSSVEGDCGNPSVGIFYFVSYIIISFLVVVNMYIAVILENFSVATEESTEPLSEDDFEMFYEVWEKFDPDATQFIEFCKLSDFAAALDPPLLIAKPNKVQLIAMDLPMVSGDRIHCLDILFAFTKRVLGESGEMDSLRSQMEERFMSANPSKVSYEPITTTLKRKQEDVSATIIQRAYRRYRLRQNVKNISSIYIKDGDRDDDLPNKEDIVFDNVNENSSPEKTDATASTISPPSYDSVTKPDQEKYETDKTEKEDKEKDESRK

B1: H1M852N (antibody, V domains shown)
VH: QVQLVESGGGVVQPGRSLTLSCAASGFMFNRFGMHWVRQAPGKGLDWVAVIWYDGSNKYYADSVKGRFTISRDNSKNTLYLQVNSLRAEDTAVYYCAREGTPHYYDSSGLDYWGQGTLVTVSS
VL: AIQMTQSPSSLSAYVGDRVTITCRASQDIRNDLGWYQQKPGKAPNLLIYDISSLQSGVPSRFSGSGSGTDFTLTISSLQPEDFATYYCLQDYNYPLTFGGGTKVEIK
notes: constant region may differ; also called H4H852N
Kd [1]: 117 nM
t1/2 [1]: 1.3 min
Kd [2]: > 200 nM

B2: H1M879N (antibody, V domains shown)
VH: EVQLVESGGGLVKPGGSLRLSCAASGFTFSSYTIHWVRQAPGKGLEWVSSISSSSSYIYYVDSVKGRFTISRDNAKNSVYLQMNSLRAEDTAVYYCATSSITARGYFDYWGQGTLVTVSS
VL: EIVLTQSPATLSLSPGERVTLSCRASQSVSSYLAWYQQKPGQAPRLLIYDASNRATGIPARFSGSGSGTDFTLTISSLEPEDFAVYYCQQRNIWPPTFGQGTKVEIK
notes: Hybridoma-derived
OD450 [3]: < 0.2 od
OD450 [4]: < 0.2 od

B3: H1H1006B (antibody, V domains shown)
VH: EVQLVESGPGLVKSSETLSLKCTVSGGSISSSGYYWGWIRQPPGKGLEWIGSIHRSGSTFYNPSLKSRVTISVDTSKSQFSLRLTSVTAADTSVYFCGRHGRDYYYGMDVWGQGTTVTVSS
VL: DIQMTQSPSSVSASVGDRVTITCRSSQDINNWLVWYQQKPGKAPKVLIYGASRLQSGVPSRFSGSGSGTDFTLTISSLQPEDFATYYCQQANSFPLTFGGGTKVEIKR
notes: Fully human antibody; also called H4H1006B-1
binding result [5]: binds

Reference: patent publication US20160024208A1 (Regeneron, published 2016)
